Values quoted from earlier work, collected in PMC8002405.

Molecular target: Human neonatal Fc receptor (hFcRn) (UniProt P55899+P61769)
Assay: microscale thermophoresis (MST)
Conditions: pH 5.5

**Q.** For Human IgG1 (wild type), which KD is on record?
**A.** 900 nM
